From patent US20160208004A1 (published 2016)
Changes are numbered by the printed parent chain. Each block holds one binder with its values, some of them ahead of it.

Legend:
human IL-17RA = human IL-17RA (human, UniProt Q96F46 33-866); assay: cell-based or functional assay
[1] = molecular target: T1, IL-17RB.Fc (extracellular domain of human IL-17RB fused to the Fc region of human IgG) (human, UniProt Q9NRM6 18-292); assay: co-immunoprecipitation on Protein G beads, Western blot
T1 construct: extracellular domain; also called HuIL-17RB: Fc; IL-17RB Fe; not shown: Fc region of human IgG1
T1 sequence (looked up): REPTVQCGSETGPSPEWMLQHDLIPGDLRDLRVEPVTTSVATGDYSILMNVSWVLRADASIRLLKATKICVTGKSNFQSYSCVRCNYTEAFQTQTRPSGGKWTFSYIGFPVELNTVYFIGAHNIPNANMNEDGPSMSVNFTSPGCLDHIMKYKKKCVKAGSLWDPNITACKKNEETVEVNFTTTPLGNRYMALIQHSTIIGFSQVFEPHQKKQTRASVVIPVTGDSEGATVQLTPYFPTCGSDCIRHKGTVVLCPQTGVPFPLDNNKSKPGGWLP

[2] = molecular target: T2, IL-17RA.Fc (extracellular domain of human IL-17RA fused to the Fc region of human IgG) (human, UniProt Q96F46 33-320); assay: as above
T2 construct: extracellular domain; also called IL-17RA Fe; not shown: Fc region of human IgG1

% Inhib. of IL-5 production, TSLP treated human PBMC + IL-2 + IL-25, Expt. 1 (human IL-17RA): 0% | % Inhib. of IL-5 production, TSLP treated human PBMC + IL-2 + IL-25, Expt. 2 (human IL-17RA): 13% | % Inhib. of IL-5 production, TSLP treated human PBMC + IL-2 + IL-25, Expt. 3 (human IL-17RA): 3%
B1: 2.67.1 (antibody, V domains shown)
VH: QVQLVQSGAEVKKPGASVKVSCKASGYTLTRYGISWVRQAPGQGLEWMGWISAYNGNTNYAQKLQGRVTMTTDTSTSTAYMELRSLRSDDTAVYYCARRDYDILTGYYNGFDPWGQGTLVTVSS
VL: DIQMTQSPSSLSASVGDRVTITCRASQGIRNDLGWYQQKPGKAPKRLIYAASSLQSGVPSRFSGSGSGTEFTLTISSLQPEDFATYYCLQHKSYPLTFGGGTKVEIK

% Inhib. of IL-5 production, TSLP treated human PBMC + IL-2 + IL-25, Expt. 1 (human IL-17RA): 0% | % Inhib. of IL-5 production, TSLP treated human PBMC + IL-2 + IL-25, Expt. 2 (human IL-17RA): 79% | % Inhib. of IL-5 production, TSLP treated human PBMC + IL-2 + IL-25, Expt. 3 (human IL-17RA): 0%
B2: 2.98.1 (antibody, V domains shown)
VH: B1 VH
VL: B1 VL

% Inhib. of IL-5 production, TSLP treated human PBMC + IL-2 + IL-25, Expt. 1 (human IL-17RA): 0% | % Inhib. of IL-5 production, TSLP treated human PBMC + IL-2 + IL-25, Expt. 3 (human IL-17RA): 0%
B3: 2.225.1 (antibody, V domains shown)
VH: B1 VH with A9V
VL: B1 VL

% Inhib. of IL-5 production, TSLP treated human PBMC + IL-2 + IL-25, Expt. 1 (human IL-17RA): 0% | % Inhib. of IL-5 production, TSLP treated human PBMC + IL-2 + IL-25, Expt. 2 (human IL-17RA): 6% | % Inhib. of IL-5 production, TSLP treated human PBMC + IL-2 + IL-25, Expt. 3 (human IL-17RA): 0%
B4: 2.46.1 (antibody, V domains shown)
VH: B1 VH with Y27N, L29F, R31G, K63N
VL: B1 VL

B5: Human IL-17RD.HIS (receptor, UniProt Q8NFM7 27-299, looked up)
chain: AGGSGRARGADTCGWRGVGPASRNSGLYNITFKYDNCTTYLNPVGKHVIADAQNITISQYACHDQVAVTILWSPGALGIEFLKGFRVILEELKSEGRQCQQLILKDPKQLNSSFKRTGMESQPFLNMKFETDYFVKVVPFPSIKNESNYHPFFFRTRACDLLLQPDNLACKPFWKPRNLNISQHGSDMQVSFDHAPHNFGFRFFYLHYKLKHEGPFKRKTCKQEQTTETTSCLLQNVSPGDYIIELVDDTNTTRKVMHYALKPVHSPWAGPIR
notes: R&D Systems product; not shown: HIS tag
binding result [1]: no binding (tested: 2 micrograms of each protein) | binding result [2]: no binding (tested: 2 micrograms of each protein)

% Inhib. of IL-5 production, TSLP treated human PBMC + IL-2 + IL-25, Expt. 1 (human IL-17RA): 0% | % Inhib. of IL-5 production, TSLP treated human PBMC + IL-2 + IL-25, Expt. 2 (human IL-17RA): 43% | % Inhib. of IL-5 production, TSLP treated human PBMC + IL-2 + IL-25, Expt. 3 (human IL-17RA): 0%
B6: 3.1545.1 (antibody, V domains shown)
VH: EVQLVESGGGSVQPGGSLRLSCAASGFTFSSYSMNWVRQAPGKGLEWVSIISSRSSIIHYADSVKGRFTISRDNAKNSLYLQMNSLRDEDTAVYYCARPKVGGGMDVWGQGTTVTVSS
VL: DIQMTQSPSSLSASVGDRVTITCRASQGISNYLAWYQQKPGKFPELLIYAASTLQSGVPSRFSGSGSGTDFTLTISSLQPEDVATYYCQKYNRAPFTFGPGTKVDIK

% Inhib. of IL-5 production, TSLP treated human PBMC + IL-2 + IL-25, Expt. 1 (human IL-17RA): 0% | % Inhib. of IL-5 production, TSLP treated human PBMC + IL-2 + IL-25, Expt. 2 (human IL-17RA): 41% | % Inhib. of IL-5 production, TSLP treated human PBMC + IL-2 + IL-25, Expt. 3 (human IL-17RA): 9%
B7: 1.185.1 (antibody, V domains shown)
VH: QVQLVESGGGVVQPGRSLRLSCAASGINFSSYGMHWVRQAPGKGLEWVAVIWYDGSNKHYADSVKGRFTISRDNSKNTLYLQMNSLRAEDTAVYYCARDTGVYWGQGTLVTVSS
VL: not shown

% Inhib. of IL-5 production, TSLP treated human PBMC + IL-2 + IL-25, Expt. 1 (human IL-17RA): 0% | % Inhib. of IL-5 production, TSLP treated human PBMC + IL-2 + IL-25, Expt. 3 (human IL-17RA): 11%
B8: 4.357.1 (antibody, V domains shown)
VH: QVQLVQSGAEVKKPGASVKVSCKASGYTLTSYGISWVRQAPGQGLEWMGWISTYKGNTNYAQKLQGRVTMTTDTSTSTAYMELRSLRSDDTAVYYCARKQLVFDYWGQGTLVTVSS
VL: EIVMTQSPATLSVSPGERATLSCRASQSISSSLAWYQQKPGQAPRLLIYGASTRATGIPARFSGSGSGTEFTLTISSLQSENFAVYYCQQYDNWPLTFGGGTKVEIK

% Inhib. of IL-5 production, TSLP treated human PBMC + IL-2 + IL-25, Expt. 1 (human IL-17RA): 28% | % Inhib. of IL-5 production, TSLP treated human PBMC + IL-2 + IL-25, Expt. 2 (human IL-17RA): 72% | % Inhib. of IL-5 production, TSLP treated human PBMC + IL-2 + IL-25, Expt. 3 (human IL-17RA): 45%
B9: 4.393.1 (antibody, V domains shown)
VH: B8 VH with L29F, T53A, K55N, N59K, A79V
VL: B8 VL with S31T, A51T, N82D, Y87F, N93I
